Laboratory results: patent US20240409647A1, “BISPECIFIC BINDING PROTEINS AGAINST ALARMINS AND USES THEREOF” (SINOMAB BIOSCIENCE LIMITED, priority 2022, published 2024)

How the values were obtained:
TSLP [1] = biological target: T1, TSLP (Homo sapiens, UniProt Q969D9); assay: Bio-Layer Interferometry (Octet), binding kinetics of bsBp to human TSLP
T1 construct: purchased R&D systems
Procedure: The binding affinity of bsBp to the targeted alarmins was determined using a bio-Layer Interferometry analysis (Octet ReD96 system, Sartorius). bsBp or SM17 (20 μg/mL) was immobilized on biosensors via binding to anti-human Fab CH1 region; serially diluted human IL33 and TSLP (158.7 nM, 79.4 nM, 39.7 nM) (R&D systems) were added to plot the association and dissociation curve according to the manufacturer's specification. Biosensors immobilized with irrelevant antibody (SM03, anti-human CD22 chimeric IgG1 antibody, SinoMab BioScience Limited, 20 μg/mL) were used as control reference.

IL-33 = biological target: T2, IL-33 (Homo sapiens, UniProt O95760); assay: ELISA, antigen binding specificity of bsBp (IL-33); set-up: key: −: no binding; +: weak; ++: moderate; +++: strong binding; N/A refers to no binding affinity; details: 33.5 nM; antigen coated at 2 μg/mL
T2 construct: purchased R&D systems
T2 sequence (O95760 95-270): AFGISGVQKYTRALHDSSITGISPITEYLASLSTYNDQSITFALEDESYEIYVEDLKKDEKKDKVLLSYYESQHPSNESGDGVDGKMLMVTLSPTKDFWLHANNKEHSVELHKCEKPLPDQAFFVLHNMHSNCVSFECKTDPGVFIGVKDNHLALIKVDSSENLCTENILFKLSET
Procedure: (§1) Binding specificities of bsBp were evaluated by standard ELISA assays. Briefly, ELISA strips were coated with the respective target antigens, including IL17RB, IL-33, or TSLP (R&D systems) at a final concentration of 2 μg/mL. Bispecific antibodies were added at 33.5 nM to ELISA strips coated with the desired antigen. After incubation under room temperature for 2 hours, ELISA strips were washed five times with PBS. […] No result is provided for SM17-human TSLPR as the yield was too low to be detected.

Normal human DCs = assay: Dendritic cell potency assay, TSLP-induced CCL17 production; format: cell-based; set-up: key: −: no inhibition; +: weak; ++: moderate; +++: strong inhibition; details: 5 μg/mL; TSLP 10 ng/mL, 5 days
Description: TSLP from inflamed epithelium promotes maturation of dendritic cells (DCs) to prime Th2 responses via CCL17, which induces chemotaxis of CD4+ T cells to mediate inflammation (Kitajima and Ziegler. 2013. “Cutting Edge: Identification Of The Thymic Stromal Lymphopoietin-Responsive Dendritic Cell Subset Critical For Initiation Of Type 2 Contact Hypersensitivity”. J Immunol 191: 4903-4907; Bleck et al. 2015. “Co-Expression Of Type 2 Immune Targets In Sputum-Derived Epithelial And Dendritic Cells From Asthmatic Subjects”. J Allergy Clin Immunol 136: 619-627.e5). Normal human DCs were obtained from Lonza (Bend, OR). The DCs were cultured in LGM-3 medium (Lonza). TSLP (10 ng/mL) is added into the DC cultures for 5 days in the presence of 5 μg/mL of SM17, IgG4 isotype control (Sino Biological), SM17-TSLPR bsBp (SM17 fused with TSLP receptor extracellular domain) or SM17-anti-TSLP bsBp 2 #. The supernatants are harvested and the levels of CCL17 measured by ELISA following the manufacturer's specification (R&D systems).

hIL 17RD = biological target: T3, hIL 17RD (Homo sapiens, UniProt Q8NFM7); assay: ELISA, SM17 specificity against IL-17 receptor subunits (IL17RD); format: binding; details: 0.4 to 0.00064 μg/mL
T3 construct: purchased R&D systems
T3 sequence (Q8NFM7 17-739): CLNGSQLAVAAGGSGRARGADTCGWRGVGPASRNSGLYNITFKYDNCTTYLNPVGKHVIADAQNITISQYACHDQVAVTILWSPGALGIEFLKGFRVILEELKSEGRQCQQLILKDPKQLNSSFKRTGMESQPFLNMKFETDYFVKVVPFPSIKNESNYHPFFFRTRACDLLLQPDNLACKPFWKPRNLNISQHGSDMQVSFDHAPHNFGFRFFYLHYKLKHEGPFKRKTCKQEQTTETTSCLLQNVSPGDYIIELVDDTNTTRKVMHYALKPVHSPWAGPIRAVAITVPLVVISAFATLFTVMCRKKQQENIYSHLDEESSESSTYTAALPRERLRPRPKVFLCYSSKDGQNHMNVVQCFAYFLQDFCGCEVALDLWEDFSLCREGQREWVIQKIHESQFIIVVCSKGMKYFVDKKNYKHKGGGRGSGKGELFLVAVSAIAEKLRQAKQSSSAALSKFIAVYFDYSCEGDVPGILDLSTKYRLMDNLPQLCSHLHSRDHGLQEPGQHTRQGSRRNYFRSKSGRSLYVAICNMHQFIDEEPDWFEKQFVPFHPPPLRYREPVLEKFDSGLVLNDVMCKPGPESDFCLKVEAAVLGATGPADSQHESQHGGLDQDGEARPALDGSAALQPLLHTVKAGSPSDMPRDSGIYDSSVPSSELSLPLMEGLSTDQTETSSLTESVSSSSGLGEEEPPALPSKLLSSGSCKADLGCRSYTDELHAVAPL
Procedure: A standard ELISA method was used to determine the specificity of SM17 against other human IL17 receptor subunits. Similarly, serially diluted SM17 at different concentrations (final concentrations at 0.4, 0.08, 0.016, 0.0032 and 0.00064 μg/m, respectively) was added to the wells of ELISA plates coated either with human IL-17 receptor subunits A, C, D and E (IL17RA, IL17RC, IL17RD, and IL17RE) (R&D systems).

TSLP [2] = biological target: T1, TSLP; assay: ELISA, antigen binding specificity of bsBp (TSLP); set-up: key: −: no binding; +: weak; ++: moderate; +++: strong binding; N/A refers to no binding affinity; details: 33.5 nM; antigen coated at 2 μg/mL
Procedure: as §1

Kdis (TSLP [1]): 0.001 s⁻¹ | Ka (TSLP [1]; bsBp or SM17 immobilized at 20 μg/mL): 10000 M⁻¹ s⁻¹ | Intensity of specific antigen binding, IL-33 coated on ELISA strips (IL-33): − | binding of SM17 to IL17RD (in words) (hIL 17RD): No obvious bindings | Intensity of specific antigen binding, TSLP coated on ELISA strips (TSLP [2]): +
Substance: SM17: humanized anti-IL17RB monoclonal antibody, human IgG4 isotype; HC SEQ ID NO: 32, LC SEQ ID NO: 33
Potency, inhibition of CCL17 release on dendritic cells (Normal human DCs): −
